Target: T1, Flag-Drosha S300E,S302D (phospho-mimic) (UniProt Q9NRR4 1-1374, S300E | S302D)
T1 construct: Drosha with S300E and S302D, Flag-tagged as m1; also called phospho-mimic Drosha; source: HEK293T, transfected, in lysate
T1 sequence (looked up): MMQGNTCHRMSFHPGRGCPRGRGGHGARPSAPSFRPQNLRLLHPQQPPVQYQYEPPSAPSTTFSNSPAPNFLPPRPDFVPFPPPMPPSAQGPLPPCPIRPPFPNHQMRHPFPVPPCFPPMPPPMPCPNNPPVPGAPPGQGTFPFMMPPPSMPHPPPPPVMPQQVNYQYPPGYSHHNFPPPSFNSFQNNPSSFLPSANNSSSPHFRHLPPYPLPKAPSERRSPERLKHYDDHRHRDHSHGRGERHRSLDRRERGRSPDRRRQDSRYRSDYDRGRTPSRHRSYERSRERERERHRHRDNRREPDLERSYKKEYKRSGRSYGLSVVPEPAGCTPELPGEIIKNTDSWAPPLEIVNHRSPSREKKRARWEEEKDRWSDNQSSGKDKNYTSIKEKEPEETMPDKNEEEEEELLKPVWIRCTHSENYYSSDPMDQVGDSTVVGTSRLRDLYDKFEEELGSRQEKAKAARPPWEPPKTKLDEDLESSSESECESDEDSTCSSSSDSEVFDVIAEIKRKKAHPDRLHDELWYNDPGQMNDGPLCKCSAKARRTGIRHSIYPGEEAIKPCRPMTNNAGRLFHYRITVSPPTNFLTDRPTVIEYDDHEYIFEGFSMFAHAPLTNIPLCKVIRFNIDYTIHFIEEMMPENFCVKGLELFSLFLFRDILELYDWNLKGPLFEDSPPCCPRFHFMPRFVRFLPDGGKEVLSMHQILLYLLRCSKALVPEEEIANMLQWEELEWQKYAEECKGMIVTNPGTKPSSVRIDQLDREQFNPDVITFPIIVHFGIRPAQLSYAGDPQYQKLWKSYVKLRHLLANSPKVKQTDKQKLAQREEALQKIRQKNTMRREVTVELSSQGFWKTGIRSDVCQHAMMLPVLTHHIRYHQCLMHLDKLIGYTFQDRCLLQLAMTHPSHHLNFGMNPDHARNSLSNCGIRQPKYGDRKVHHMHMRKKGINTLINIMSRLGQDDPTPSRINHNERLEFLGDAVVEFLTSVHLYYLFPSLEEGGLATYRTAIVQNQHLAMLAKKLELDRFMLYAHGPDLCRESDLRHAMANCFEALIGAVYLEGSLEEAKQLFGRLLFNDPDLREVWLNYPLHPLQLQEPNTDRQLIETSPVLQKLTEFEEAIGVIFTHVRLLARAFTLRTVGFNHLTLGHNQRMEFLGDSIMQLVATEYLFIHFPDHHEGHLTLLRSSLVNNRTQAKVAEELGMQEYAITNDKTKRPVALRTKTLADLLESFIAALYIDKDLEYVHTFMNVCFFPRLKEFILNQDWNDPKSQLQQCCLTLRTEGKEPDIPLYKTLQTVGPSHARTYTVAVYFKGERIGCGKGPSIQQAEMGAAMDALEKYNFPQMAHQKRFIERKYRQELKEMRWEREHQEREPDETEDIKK
Experiment: co-IP; Flag immunoprecipitates of HEK293T cells transfected with Flag-Drosha (WT or mutants), blotted for PLK1 or DGCR8; cells treated with DMSO, RO-520 (100 nM) or NMS (500 nM) for 16 h, or samples with RNase A; mutant panel 72 h after transfection
Settings: partners not purified

fold change of co-precipitated DGCR8 against WT Drosha: 2.5 fold
B1: DGCR8 (natural protein, human (endogenous in HEK293T), UniProt Q8WYQ5 1-773, looked up)
chain: METDESPSPLPCGPAGEAVMESRARPFQALPREQSPPPPLQTSSGAEVMDVGSGGDGQSELPAEDPFNFYGASLLSKGSFSKGRLLIDPNCSGHSPRTARHAPAVRKFSPDLKLLKDVKISVSFTESCRSKDRKVLYTGAERDVRAECGLLLSPVSGDVHACPFGGSVGDGVGIGGESADKKDEENELDQEKRVEYAVLDELEDFTDNLELDEEGAGGFTAKAIVQRDRVDEEALNFPYEDDFDNDVDALLEEGLCAPKKRRTEEKYGGDSDHPSDGETSVQPMMTKIKTVLKSRGRPPTEPLPDGWIMTFHNSGVPVYLHRESRVVTWSRPYFLGTGSIRKHDPPLSSIPCLHYKKMKDNEEREQSSDLTPSGDVSPVKPLSRSAELEFPLDEPDSMGADPGPPDEKDPLGAEAAPGALGQVKAKVEVCKDESVDLEEFRSYLEKRFDFEQVTVKKFRTWAERRQFNREMKRKQAESERPILPANQKLITLSVQDAPTKKEFVINPNGKSEVCILHEYMQRVLKVRPVYNFFECENPSEPFGASVTIDGVTYGSGTASSKKLAKNKAARATLEILIPDFVKQTSEEKPKDSEELEYFNHISIEDSRVYELTSKAGLLSPYQILHECLKRNHGMGDTSIKFEVVPGKNQKSEYVMACGKHTVRGWCKNKRVGKQLASQKILQLLHPHVKNWGSLLRMYGRESSKMVKQETSDKSVIELQQYAKKNKPNLHILSKLQEEMKRLAEEREETRKKPKMSIVASAQPGGEPLCTVDV
notes: DGCR8, Microprocessor cofactor of Drosha, detected by blot in Flag immunoprecipitates of HEK293T cells; source: HEK293T lysate (cells transfected with Flag-Drosha only)

Reference: publication PMC10531876, “PLK1 Regulates MicroRNA Biogenesis through Drosha Phosphorylation” (International Journal of Molecular Sciences, 2023)
